The experiment addresses T1, Full-length human His-tagged angiotensin-converting enzyme 2 (ACE2) (human, UniProt Q9BYF1).
T1 construct: also called hACE2
Put plainly: cryo-EM structure. Conditions: both partners purified.

This note sets out measurements from publication PMC9667838 (Cell Discovery, 2022).

T1 sequence (Q9BYF1 18-805): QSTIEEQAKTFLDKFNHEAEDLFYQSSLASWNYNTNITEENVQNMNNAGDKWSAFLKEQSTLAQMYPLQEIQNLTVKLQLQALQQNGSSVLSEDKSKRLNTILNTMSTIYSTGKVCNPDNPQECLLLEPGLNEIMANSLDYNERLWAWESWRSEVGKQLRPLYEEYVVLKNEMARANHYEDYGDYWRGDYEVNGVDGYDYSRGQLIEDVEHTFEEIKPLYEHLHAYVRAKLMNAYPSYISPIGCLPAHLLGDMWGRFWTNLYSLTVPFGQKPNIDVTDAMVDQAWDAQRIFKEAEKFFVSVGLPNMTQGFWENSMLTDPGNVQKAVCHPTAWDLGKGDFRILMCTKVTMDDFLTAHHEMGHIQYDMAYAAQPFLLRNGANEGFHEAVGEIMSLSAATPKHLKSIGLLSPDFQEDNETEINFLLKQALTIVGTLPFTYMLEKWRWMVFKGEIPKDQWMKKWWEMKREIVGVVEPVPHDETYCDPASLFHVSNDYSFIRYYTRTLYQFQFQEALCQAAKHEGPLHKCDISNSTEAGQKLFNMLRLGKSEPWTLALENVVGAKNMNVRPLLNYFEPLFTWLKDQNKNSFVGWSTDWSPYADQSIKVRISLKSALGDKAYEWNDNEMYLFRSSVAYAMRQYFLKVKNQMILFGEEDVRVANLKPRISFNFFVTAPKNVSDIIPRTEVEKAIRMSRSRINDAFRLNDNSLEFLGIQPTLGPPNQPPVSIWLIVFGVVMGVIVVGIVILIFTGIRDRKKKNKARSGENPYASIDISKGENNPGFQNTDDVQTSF

B1: Full-length human Flag-tagged SIT1 (SLC6A20) (natural protein)
chain: MEKARPLWANSLQFVFACISYAVGLGNVWRFPYLCQMYGGGSFLVPYIIMLIVEGMPLLYLELAVGQRMRQGSIGAWRTISPYLSGVGVASVVVSFFLSMYYNVINAWAFWYLFHSFQDPLPWSVCPLNGNHTGYDEECEKASSTQYFWYRKTLNISPSLQENGGVQWEPALCLLLAWLVVYLCILRGTESTGKVVYFTASLPYCVLIIYLIRGLTLHGATNGLMYMFTPKIEQLANPKAWINAATQIFFSLGLGFGSLIAFASYNEPSNNCQKHAIIVSLINSFTSIFASIVTFSIYGFKATFNYENCLKKVSLLLTNTFDLEDGFLTASNLEQVKGYLASAYPSKYSEMFPQIKNCSLESELDTAVQGTGLAFIVYTEAIKNMEVSQLWSVLYFFMLLMLGIGSMLGNTAAILTPLTDSKIISSHLPKEAISGLVCLVNCAIGMVFTMEAGNYWFDIFNDYAATLSLLLIVLVETIAVCYVYGLRRFESDLKAMTGRAVSWYWKVMWAGVSPLLIVSLFVFYLSDYILTGTLKYQAWDASQGQLVTKDYPAYALAVIGLLVASSTMCIPLAALGTFVQRRLKRGDADPVA
Regarding B1, the binding result is “binds”.
